{
  "source": "patent US20240116985A1",
  "about": "(published 2024)",
  "binders": {"B1": {"name": "I-622 (peptide)", "peptide": "XDLXDEAAFTXFXQ", "modifications": "not fully specified; N-terminal Ac; PL3 (pos 1), B5 (pos 4), S8 (pos 11) stapled (PL3-B5 and B5-S8); BztA (pos 13); C-terminal NH2", "notes": "Stapled peptide; also called Ac-PL3-Asp-Leu-B5-Asp-Glu-Ala-Ala-Phe-Thr-S8-Phe-BztA-Gln-NH2"}, "B2": {"name": "I-623 (peptide)", "peptide": "XDLXDEAAFTXFXQ", "modifications": "not fully specified; N-terminal Ac; PL3 (pos 1), B5 (pos 4), S8 (pos 11) stapled (PL3-B5 and B5-S8); BztA (pos 13); C-terminal NH2", "notes": "as for B1"}, "B3": {"name": "I-618 (peptide)", "peptide": "XDLXDEAAFTXFXH", "modifications": "not fully specified; N-terminal Ac; PL3 (pos 1), B5 (pos 4), S8 (pos 11) stapled (PL3-B5 and B5-S8); BztA (pos 13); C-terminal NH2", "notes": "Stapled peptide; also called Ac-PL3-Asp-Leu-B5-Asp-Glu-Ala-Ala-Phe-Thr-S8-Phe-BztA-His-NH2"}, "B4": {"name": "I-348 (peptide)", "peptide": "XAAXDDAAFVXFWQ", "modifications": "not fully specified; N-terminal Ac; C-terminal NH2; PL3 at 1, B5 at 4, S8 at 11 (stapled 1-4 and 4-11)", "notes": "Stapled peptide composition; Earlier-eluting isomer composition; also called Ac-PL3-Ala-Ala-B5-Asp-Asp-Ala-Ala-Phe-Val-S8-Phe-Trp-Gln-NH2"}, "B5": {"name": "I-349 (peptide)", "peptide": "XAAXDDAAFVXFWQ", "modifications": "not fully specified; N-terminal Ac; C-terminal NH2; PL3 at 1, B5 at 4, S8 at 11 (stapled 1-4 and 4-11)", "notes": "Stapled peptide composition; Later-eluting isomer composition; also called Ac-PL3-Ala-Ala-B5-Asp-Asp-Ala-Ala-Phe-Val-S8-Phe-Trp-Gln-NH2"}, "B6": {"name": "I-1155 (peptide)", "peptide": "Ac-[αAllylPro]DF[B5(16)]DDLLFS[PyrS2″][Phe(2-Cl)][Bta]Q-NH2", "modifications": "staple 1-4, 4-11", "notes": "Stapled (stitched) peptide composition; olefin isomer not specified"}, "B7": {"name": "I-1154 (peptide)", "peptide": "Ac-[αAllylPro]DF[B5(16)]DDALFS[PyrS2″][Phe(2-Cl)][Bta]Q-NH2", "modifications": "staple 1-4, 4-11", "notes": "as for B6"}},
  "note": "Starred links: 1 amine or outer side, 2 acyl side, 3 side chain; linkers in the order of their positions; H or OH if unused. Positions of bridges follow the written chain, without caps; N, C: chain ends. Non-standard residues stand in square brackets, D forms with d. Primed or numbered codes have the meaning given here. PyrS2″ = (S)-3-amino-1-((pent-4-en-1-yloxy)carbonyl)pyrrolidine-3-carboxylic acid (stapling residue), C=CCCCOC(=O)N1CC[C@@](N[*:1])(C(=O)[*:2])C1; B5(16) = 2-amino-2-(pent-4-en-1-yl)hept-6-enoic acid = 2,2-bis(4-pentenyl)glycine (stitching residue), C=CCCCC(CCCC=C)(N[*:1])C(=O)[*:2]; B5(4) = 2,2-bis(4-pentenyl)glycine = 2-amino-2-(pent-4-en-1-yl)hept-6-enoic acid (stitching residue), C=CCCCC(CCCC=C)(N[*:1])C(=O)[*:2]; PyrS2 = (S)-3-amino-1-((pent-4-en-1-yloxy)carbonyl)pyrrolidine-3-carboxylic acid, C=CCCCOC(=O)N1CC[C@@](N[*:1])(C(=O)[*:2])C1; Trp(1-Me) = Cn1cc(C[C@H](N)C(=O)O)c2ccccc21; Phe(2-Cl) = N[C@@H](Cc1ccccc1Cl)C(=O)O; Bta = N[C@@H](Cc1csc2ccccc12)C(=O)O; Lys(iPr) = CC(C)NCCCC[C@H](N)C(=O)O; αAllylPro = C=CC[C@@]1(C(=O)O)CCCN1; tBuAla = CC(C)(C)C[C@H](N)C(=O)O",
  "data": [
    {"target": "T1, full-length beta-Catenin (Uniprot ID P35222) (Homo sapiens (Human), UniProt P35222 1-781)", "T1 construct": "The assay text says full-length; also called bCat; B-Catenin", "T1 sequence": "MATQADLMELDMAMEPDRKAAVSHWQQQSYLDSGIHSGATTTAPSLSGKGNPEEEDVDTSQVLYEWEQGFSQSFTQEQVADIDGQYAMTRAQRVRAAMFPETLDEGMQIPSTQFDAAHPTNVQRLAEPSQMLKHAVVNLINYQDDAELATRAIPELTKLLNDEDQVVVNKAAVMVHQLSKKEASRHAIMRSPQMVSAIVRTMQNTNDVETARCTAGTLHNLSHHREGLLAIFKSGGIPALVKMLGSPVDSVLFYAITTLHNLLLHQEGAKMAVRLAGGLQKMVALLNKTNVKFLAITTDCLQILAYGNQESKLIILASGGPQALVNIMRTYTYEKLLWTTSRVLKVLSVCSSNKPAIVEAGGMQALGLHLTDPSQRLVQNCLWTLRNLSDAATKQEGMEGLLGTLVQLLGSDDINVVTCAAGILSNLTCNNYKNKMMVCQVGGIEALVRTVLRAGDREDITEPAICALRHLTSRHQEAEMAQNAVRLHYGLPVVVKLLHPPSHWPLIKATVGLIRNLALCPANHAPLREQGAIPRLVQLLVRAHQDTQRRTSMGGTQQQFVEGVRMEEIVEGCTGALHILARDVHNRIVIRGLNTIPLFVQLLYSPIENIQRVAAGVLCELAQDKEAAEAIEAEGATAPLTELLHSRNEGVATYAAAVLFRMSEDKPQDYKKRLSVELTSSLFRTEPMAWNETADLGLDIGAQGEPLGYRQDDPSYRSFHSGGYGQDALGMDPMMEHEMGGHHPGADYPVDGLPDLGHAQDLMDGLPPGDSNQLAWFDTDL", "assay": "fluorescence polarization competition; full-length beta-catenin with 5FAM-TCF4(10-53) probe as competitor", "how_it_was_run": "(§1)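 Plate incubated 60 minutes at 20° C. protected from light before reading. Concentrations given are final.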", "units": {"IC50": "nM"}, "values": [
      {"binder": "B1", "IC50": 230},
      {"binder": "B2", "IC50": 103},
      {"binder": "B3", "IC50": 135}
    ]},
    {"target": "T2, full-length beta-Catenin (Uniprot ID P35222) (Homo sapiens (Human), UniProt P35222 2-781)", "T2 construct": "The assay protocols say only 'full-length'; No tag is stated, although the AlphaScreen kit is a Histidine (Nickel Chelate) kit; also called B-Catenin; bCat", "T2 sequence": "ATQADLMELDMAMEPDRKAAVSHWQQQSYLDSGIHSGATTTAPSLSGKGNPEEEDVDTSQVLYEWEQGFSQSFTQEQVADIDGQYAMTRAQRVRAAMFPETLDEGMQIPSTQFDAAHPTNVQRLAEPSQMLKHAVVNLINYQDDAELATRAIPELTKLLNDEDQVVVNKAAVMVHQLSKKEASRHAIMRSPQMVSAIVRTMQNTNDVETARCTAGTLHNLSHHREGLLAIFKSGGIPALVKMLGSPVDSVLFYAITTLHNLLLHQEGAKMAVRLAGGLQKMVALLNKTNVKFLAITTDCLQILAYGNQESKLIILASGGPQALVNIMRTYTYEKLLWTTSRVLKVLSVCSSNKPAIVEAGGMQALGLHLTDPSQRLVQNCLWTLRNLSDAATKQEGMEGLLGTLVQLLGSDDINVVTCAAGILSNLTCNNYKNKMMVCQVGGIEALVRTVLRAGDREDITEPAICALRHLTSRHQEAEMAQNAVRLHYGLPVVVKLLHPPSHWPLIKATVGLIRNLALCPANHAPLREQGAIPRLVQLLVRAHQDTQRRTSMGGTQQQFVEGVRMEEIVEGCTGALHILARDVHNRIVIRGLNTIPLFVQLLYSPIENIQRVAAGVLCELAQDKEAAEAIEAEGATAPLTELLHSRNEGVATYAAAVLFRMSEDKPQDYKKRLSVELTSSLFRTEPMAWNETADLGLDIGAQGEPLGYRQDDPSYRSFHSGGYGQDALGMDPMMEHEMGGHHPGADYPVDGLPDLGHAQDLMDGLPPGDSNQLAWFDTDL", "assay": "AlphaScreen competition; peptide titrated against full-length beta-catenin + biotin-TCF4(10-53)", "procedure": "Equal volume of the titrated peptide was added to the plate and incubated for 15 minutes at 20° C. Then 4 uL of donor and 4 uL acceptor beads at 10 ug/mL were added to the plate, for a 16 uL reaction pool and protected from light for 60 minutes at 20° C. prior to read. Reads were performed on a CLARIOstar plate reader (BMG Labtech) in duplicate, and data were fitted to a 1:1 binding model with hill slope using an in-house script. All provided concentrations are final concentrations.", "units": {"EC50": "nM"}, "values": [
      {"binder": "B4", "EC50": 10000},
      {"binder": "B5", "EC50": 7190}
    ]},
    {"target": "T3, full-length beta-Catenin (Uniprot ID P35222) (Homo sapiens (Human), UniProt P35222 2-781)", "T3 construct": "also called bCat; B-Catenin", "T3 sequence": "T2 sequence", "assay": "fluorescence polarization competition; full-length beta-catenin, 5FAM-TCF4(10-53) probe as competitor", "procedure": "The plate was incubated protected from light for 60 minutes at 20° C. prior to read. Reads were performed on a CLARIOstar plate reader (BMG Labtech) in duplicate, and data were fitted to a 1:1 binding model with hill slope using an in-house script. All provided concentrations are final concentrations.", "units": {"IC50": "nM"}, "values": [
      {"binder": "Ac-[αAllylPro]NF[B5(4)]DT[Lys(iPr)]AFL[PyrS2″]F[Bta]Q-NH2 (staple 1-4, 4-11)", "note": "[I-1580]", "IC50": 1430},
      {"binder": "Ac-[αAllylPro]NW[B5(4)]DT[Lys(iPr)]AFL[PyrS2″]F[Bta]Q-NH2 (staple 1-4, 4-11)", "note": "[I-1581]", "IC50": 10000},
      {"binder": "Ac-[αAllylPro]NL[B5(4)]DT[Lys(iPr)]AFL[PyrS2″]F[Bta]Q-NH2 (staple 1-4, 4-11)", "note": "[I-1582]", "IC50": 1220},
      {"binder": "Ac-[αAllylPro]NS[B5(4)]DT[Lys(iPr)]AFL[PyrS2″]F[Bta]Q-NH2 (staple 1-4, 4-11)", "note": "[I-1583]", "IC50": 3420},
      {"binder": "Ac-[αAllylPro]NQ[B5(4)]DT[Lys(iPr)]AFL[PyrS2″]F[Bta]Q-NH2 (staple 1-4, 4-11)", "note": "[I-1584]", "IC50": 2440},
      {"binder": "Ac-[αAllylPro]N[Lys(iPr)][B5(4)]DT[Lys(iPr)]AFL[PyrS2]F[Bta]Q-NH2 (staple 1-4, 4-11)", "note": "[I-1591]", "IC50": 3110},
      {"binder": "Ac-[αAllylPro]N[tBuAla][B5(4)]DT[Lys(iPr)]AFL[PyrS2″]F[Trp(1-Me)]Q-NH2 (staple 1-4, 4-11)", "note": "[I-1589]", "IC50": 10000},
      {"binder": "Ac-[αAllylPro]N[tBuAla][B5(4)]DT[Lys(iPr)]AFL[PyrS2″]FYQ-NH2 (staple 1-4, 4-11)", "note": "[I-1585]", "IC50": 10000},
      {"binder": "Ac-[αAllylPro]N[tBuAla][B5(4)]DT[Lys(iPr)]AFL[PyrS2]YWQ-NH2 (staple 1-4, 4-11)", "note": "[I-1590]", "IC50": 7520}
    ]},
    {"target": "T4, full-length beta-Catenin (Uniprot ID P35222) (Homo sapiens (Human), UniProt P35222 2-781)", "T4 construct": "also called bCat; B-Catenin", "T4 sequence": "T2 sequence", "assay": "fluorescence polarization competition vs 5FAM-TCF4(10-53) on full-length beta-catenin", "how_it_was_run": "as §1", "units": {"IC50": "nM"}, "values": [
      {"binder": "B6", "IC50": 60},
      {"binder": "B7", "IC50": 45}
    ]}
  ]
}
